{"source": "paper PMC8944867", "about": "(Proceedings of the National Academy of Sciences of the …, 2022)", "binders": {"B1": {"name": "HOIL-1L UBL domain (domain or fragment)", "chain": "QDIRLWVSVEDAQMHTVTIWLTVRPDMTVASLKDMVFLDYGFPPVLQQWVIGQRLARDQETLHSHGVRQNGDSAYLYLLSARN"}}, "key": {"IpaH1.4 LRR domain": {"target": "T1, IpaH1.4 LRR domain (S. flexneri, UniProt A0A0H2USG1 38-283)", "T1 sequence": "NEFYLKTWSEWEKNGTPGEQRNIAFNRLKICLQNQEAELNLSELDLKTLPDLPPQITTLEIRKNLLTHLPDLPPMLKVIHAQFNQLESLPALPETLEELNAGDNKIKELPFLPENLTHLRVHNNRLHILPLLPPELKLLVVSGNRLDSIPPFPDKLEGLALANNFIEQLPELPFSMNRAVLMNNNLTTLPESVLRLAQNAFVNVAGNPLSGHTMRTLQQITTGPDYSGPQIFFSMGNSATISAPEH", "assay": "ITC"}, "HOIP UBA domain": {"target": "T2, HOIP UBA domain (human, UniProt Q96EP0 480-636)", "T2 sequence": "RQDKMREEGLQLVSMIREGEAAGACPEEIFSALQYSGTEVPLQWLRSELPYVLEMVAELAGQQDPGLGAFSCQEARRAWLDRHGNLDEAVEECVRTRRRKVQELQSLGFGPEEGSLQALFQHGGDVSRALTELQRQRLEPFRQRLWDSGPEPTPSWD", "assay": "ITC"}}, "data": [{"binder": "B1", "values": [{"measurement": "Kd", "setting": "IpaH1.4 LRR domain", "result": 10.7, "unit": "µM"}, {"measurement": "Kd", "setting": "HOIP UBA domain", "result": "3.9 ± 0.4", "unit": "µM"}]}]}
